US20050137128 (published 2005)
Square brackets hold non-standard residues; d marks the D form. * marks the point of attachment. NHOH = ON*

Target: Aβ1-40 fibril (Homo sapiens)
Experiment: other, fibril binding 3-point assay

- Kd: ~4 nM
Binder: Me-[dL][dV][dF][dF][dL]-{NHOH} [PPI-1800]
